In article PMC11162469, “Discovery of RXFP2 genetic association in resistant hypertensive men and RXFP2 antagonists for the treatment of resistant hypertension” (Scientific Reports, 2024):

Key:
[1] = biological target: human relaxin family peptide receptor 2 (RXFP2) (human) (UniProt Q8WXD0)
[2] = biological target: rat relaxin family peptide receptor 2 (RXFP2) (rat) (UniProt Q5ECL0)
[3] = biological target: human relaxin family peptide receptor 2 (RXFP2) (human) (UniProt Q8WXD0); remark: listed apart in the source
[4] = biological target: rat relaxin family peptide receptor 2 (RXFP2) (rat) (UniProt Q5ECL0); remark: listed apart in the source
[5] = biological target: human relaxin family peptide receptor 2 (RXFP2) (human) (UniProt Q8WXD0); remark: listed apart in the source
[6] = biological target: human relaxin family peptide receptor 2 (RXFP2) (human) (UniProt Q8WXD0); remark: listed apart in the source
[7] = biological target: rat relaxin family peptide receptor 2 (RXFP2) (rat) (UniProt Q5ECL0); remark: listed apart in the source
[8] = biological target: rat RXFP1 (rat) (UniProt Q6R6I6)
rat RXFP1 (rat), sequence (Q6R6I6 whole entry): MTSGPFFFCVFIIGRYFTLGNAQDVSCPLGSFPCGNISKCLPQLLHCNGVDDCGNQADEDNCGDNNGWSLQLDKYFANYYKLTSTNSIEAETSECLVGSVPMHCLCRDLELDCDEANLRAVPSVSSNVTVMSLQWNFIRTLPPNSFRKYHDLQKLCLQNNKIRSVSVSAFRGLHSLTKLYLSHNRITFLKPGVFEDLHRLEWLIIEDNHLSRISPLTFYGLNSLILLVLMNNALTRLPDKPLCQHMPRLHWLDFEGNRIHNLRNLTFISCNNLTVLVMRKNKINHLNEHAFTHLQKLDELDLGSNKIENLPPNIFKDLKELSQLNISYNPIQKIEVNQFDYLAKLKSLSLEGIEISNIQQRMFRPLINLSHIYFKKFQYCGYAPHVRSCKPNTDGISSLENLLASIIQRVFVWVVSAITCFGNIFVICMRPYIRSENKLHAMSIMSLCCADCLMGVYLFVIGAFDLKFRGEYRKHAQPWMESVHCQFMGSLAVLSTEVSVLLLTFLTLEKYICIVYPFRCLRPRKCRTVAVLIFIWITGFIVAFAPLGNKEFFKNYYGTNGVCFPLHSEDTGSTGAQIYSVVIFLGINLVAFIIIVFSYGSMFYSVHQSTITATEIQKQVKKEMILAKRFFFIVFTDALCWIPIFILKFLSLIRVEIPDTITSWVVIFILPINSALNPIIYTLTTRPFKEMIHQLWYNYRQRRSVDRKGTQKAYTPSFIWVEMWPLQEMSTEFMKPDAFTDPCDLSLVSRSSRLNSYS

human relaxin family peptide receptor 2 (RXFP2) (human), sequence (Q8WXD0 whole entry): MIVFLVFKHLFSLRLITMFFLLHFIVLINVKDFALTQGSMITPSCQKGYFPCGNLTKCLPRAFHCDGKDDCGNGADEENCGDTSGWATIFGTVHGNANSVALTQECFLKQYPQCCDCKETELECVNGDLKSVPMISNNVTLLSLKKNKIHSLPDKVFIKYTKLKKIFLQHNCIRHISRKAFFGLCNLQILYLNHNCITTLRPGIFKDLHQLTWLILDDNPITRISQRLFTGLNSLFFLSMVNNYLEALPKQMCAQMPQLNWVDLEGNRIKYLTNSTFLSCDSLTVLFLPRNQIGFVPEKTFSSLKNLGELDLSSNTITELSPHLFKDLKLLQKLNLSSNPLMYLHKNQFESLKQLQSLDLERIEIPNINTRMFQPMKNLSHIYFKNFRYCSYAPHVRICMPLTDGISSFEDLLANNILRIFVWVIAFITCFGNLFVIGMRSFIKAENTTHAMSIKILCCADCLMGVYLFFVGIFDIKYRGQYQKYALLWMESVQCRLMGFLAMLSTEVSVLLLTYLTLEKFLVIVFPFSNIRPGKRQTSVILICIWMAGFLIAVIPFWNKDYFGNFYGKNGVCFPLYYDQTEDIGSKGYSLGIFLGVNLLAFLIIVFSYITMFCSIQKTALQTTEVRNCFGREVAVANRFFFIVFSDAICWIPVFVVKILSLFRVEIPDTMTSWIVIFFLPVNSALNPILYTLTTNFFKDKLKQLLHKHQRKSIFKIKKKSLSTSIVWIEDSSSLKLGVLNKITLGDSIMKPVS
Human INSL3 (insulin-like peptide 3) (ligand), sequence (P51460 21-131): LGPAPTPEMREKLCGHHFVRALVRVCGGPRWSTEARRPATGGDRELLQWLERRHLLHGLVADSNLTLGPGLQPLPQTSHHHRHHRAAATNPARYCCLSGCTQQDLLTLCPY
rat relaxin family peptide receptor 2 (RXFP2) (rat), sequence (Q5ECL0 entry or part of it): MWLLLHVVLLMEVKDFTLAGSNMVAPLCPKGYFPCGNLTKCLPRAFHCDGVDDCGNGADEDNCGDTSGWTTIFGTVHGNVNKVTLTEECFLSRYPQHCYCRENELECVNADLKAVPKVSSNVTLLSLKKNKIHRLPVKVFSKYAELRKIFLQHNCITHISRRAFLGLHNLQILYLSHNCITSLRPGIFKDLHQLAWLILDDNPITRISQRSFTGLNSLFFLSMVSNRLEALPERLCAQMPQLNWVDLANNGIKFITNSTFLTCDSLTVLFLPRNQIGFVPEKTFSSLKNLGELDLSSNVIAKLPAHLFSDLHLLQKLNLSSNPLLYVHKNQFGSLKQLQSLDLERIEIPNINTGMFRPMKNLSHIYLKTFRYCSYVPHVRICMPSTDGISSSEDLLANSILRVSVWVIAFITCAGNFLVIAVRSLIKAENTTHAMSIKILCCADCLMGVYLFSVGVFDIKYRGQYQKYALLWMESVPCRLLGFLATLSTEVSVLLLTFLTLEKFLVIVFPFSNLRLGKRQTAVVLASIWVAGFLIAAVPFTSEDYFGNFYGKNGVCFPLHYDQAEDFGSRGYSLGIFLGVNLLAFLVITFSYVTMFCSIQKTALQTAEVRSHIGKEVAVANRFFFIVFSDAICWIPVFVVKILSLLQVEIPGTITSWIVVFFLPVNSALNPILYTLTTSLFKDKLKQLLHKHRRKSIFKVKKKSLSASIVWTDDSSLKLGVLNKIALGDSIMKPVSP
INSL3 (species not stated for the stable HEK293 cAMP assays) (ligand), sequence (P51460 21-131): as the sequence (P51460 21-131) above
relaxin (H2 Relaxin) (ligand), sequence (P04090 25-185): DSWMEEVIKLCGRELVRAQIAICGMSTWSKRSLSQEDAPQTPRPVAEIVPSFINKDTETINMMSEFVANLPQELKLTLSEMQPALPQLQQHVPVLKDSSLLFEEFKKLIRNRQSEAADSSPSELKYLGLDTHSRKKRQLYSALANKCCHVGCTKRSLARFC

With “Human INSL3 (insulin-like peptide 3) (ligand)” the EC50, CYP11B1 mRNA expression after 48 h in H295R-hRXFP2 [1] was 1.3 nM, the EC50, CYP11B2 mRNA expression after 48 h in H295R-hRXFP2 [1] was 2 nM and the EC50, cAMP generation after 30 min in H295R stably expressing human RXFP2 [1] was 4 nM. It also gave an EC50, CYP11B1 mRNA expression after 48 h in H295R-rRXFP2 [2] of 0.3 nM, an EC50, CYP11B2 mRNA expression after 48 h in H295R-rRXFP2 [2] of 0.4 nM and an EC50, INSL3-induced intracellular calcium (FLIPR) in HEK293 Gα16 cells transiently expressing RXFP2 [3] of 13.4 nM. It also gave an EC50, INSL3-induced cAMP in HEK293 transiently expressing rat RXFP2 (BacMam) [4] of 13 nM and an EC50, INSL3-induced cAMP (HTRF) in HEK293 expressing human RXFP2 (BacMam) [5] of 0.048 nM.
With “INSL3 (species not stated for the stable HEK293 cAMP assays) (ligand)” the EC50, INSL3-induced cAMP generation in HEK293-hRXFP2 (stable) [6] was 2.9 nM and the EC50, INSL3-induced cAMP generation in HEK293-rRXFP2 cells (stable) [7] was 8.4 nM.
relaxin (H2 Relaxin) (ligand) gave an EC50, relaxin-induced cAMP generation in HEK293-rat RXFP1 (stable) [8] of 29.5 nM.
